Assay results published in publication PMC10318635, “ER Ca^2+ overload activates the IRE1α signaling and promotes cell survival” (Cell & Bioscience, 2023).

Biological target: T1, Flag-tagged IRE1α-LD (UniProt O75460 19-440)
T1 construct: signal peptide in the construct; inositol-requiring enzyme 1 (IRE1α/ERN1), luminal domain (LD), residues 1-440; The signal peptide is probably removed in HEK-293T cells; also called IRE1α-LD-FLAG; LD-FLAG; source: HEK-293T, purified (M2 beads, eluted with Flag peptide, concentrated by ultrafiltration)
T1 sequence (looked up): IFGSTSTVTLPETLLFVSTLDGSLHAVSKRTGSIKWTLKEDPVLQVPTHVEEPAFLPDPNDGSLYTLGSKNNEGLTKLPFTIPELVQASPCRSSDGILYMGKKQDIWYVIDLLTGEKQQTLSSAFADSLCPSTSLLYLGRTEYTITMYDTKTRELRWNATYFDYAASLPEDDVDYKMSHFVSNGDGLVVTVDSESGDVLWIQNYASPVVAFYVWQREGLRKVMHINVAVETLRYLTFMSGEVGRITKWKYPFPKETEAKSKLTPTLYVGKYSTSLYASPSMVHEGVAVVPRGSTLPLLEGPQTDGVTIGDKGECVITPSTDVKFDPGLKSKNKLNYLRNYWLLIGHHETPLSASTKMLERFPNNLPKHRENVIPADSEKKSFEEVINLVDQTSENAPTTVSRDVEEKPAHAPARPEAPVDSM
Assay: pull-down; GST-BiP-NBD immobilized on glutathione Sepharose 4B beads, incubated with IRE1α-LD-FLAG eluate in buffer B (50 mM HEPES, 75 mM NaCl, 10% glycerol, 1 mM TCEP, pH 7.5) with 0.5 or 0.8 mM Ca2+, room temperature, 2 h; anti-FLAG immunoblot
Details: both partners purified

binding result: binds
B1: GST-tagged BiP-nucleotide binding domain (NBD) (domain or fragment)
chain: not shown
notes: also called GST-BiP-NBD; BiP-NBD; source: bacterially purified, immobilized on glutathione Sepharose 4B beads
